Assay results: US20120237978A1

Target: β2AR part of the β2AR-Gs peptide fusion construct (receptor truncated at position 365) (human) (UniProt P07550)
Experiment: cell-based or functional assay

“last 21 amino acids of the Gαs subunit (amino acids 374-394, except for C379A), as fused in the β2AR-Gs peptide fusion construct” was tested, and the agonist affinity ([3H]-DHA competition binding with isoproterenol, Sf9 membranes) was 27 fold, the effect on agonist binding affinity compared with the β2AR-Gs complex was 3.5 fold and the fraction of β2AR in the Ki high state ([3H]-DHA / isoproterenol competition, Sf9 membranes) was 0.68.
